Laboratory results from patent US20230064196A1.

Key:
[1] = molecular target: human BTLA (human) (UniProt Q7Z6A9); test: flow cytometry; row 1*10^4; Anti-mouse IgGFc-Alexa Fluor 647(1:500)
[2] = molecular target: canine PD-1 (canine); test: as above
[3] = molecular target: human BTLA (human) (UniProt Q7Z6A9); test: flow cytometry; row 1*10^3; Anti-mouse IgGFc-Alexa Fluor 647(1:500)
[4] = molecular target: canine PD-1 (canine); test: as above
[5] = molecular target: human BTLA (human) (UniProt Q7Z6A9); test: flow cytometry; row 1*10^5; Anti-mouse IgGFc-Alexa Fluor 647(1:500)
[6] = molecular target: canine PD-1 (canine); test: as above

Sequence of UniProt Q7Z6A9 (Q7Z6A9 31-157 limits assumed): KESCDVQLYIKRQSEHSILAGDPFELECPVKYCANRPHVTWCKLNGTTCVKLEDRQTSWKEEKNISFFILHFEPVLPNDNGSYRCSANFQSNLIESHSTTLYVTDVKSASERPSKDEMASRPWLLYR

percent of cells in the gate [1]: 1.2% | percent of cells in the gate [2]: 0.068% | percent of cells in the gate [3]: 0.406% | percent of cells in the gate [4]: 0.155% | percent of cells in the gate [5]: 0.841% | percent of cells in the gate [6]: 0.273%
Substance: NC
